The DeepSol protein solubility set

Assay: soluble on expression in E. coli; label from the status in PepcDB or PDB records

Sequence | soluble on expression in E. coli
MGSDKIHHHHHHMNYFATVARGLETLAAQELEQLGAHSVEPGFCGVAFEGDRTLLYRVNLWARLPFRILVDIHEFPCLDAKDLYRGIQTIDWQNYLTPDMTLAVNVTGKNAHLNHSHFTSLQVKNAIVDQQQEKLGERSNVELHEPDVRVNVHIERDFCTVKLDSSGNSLHRRGYRPAVGSAPLKESLAAALIQLSGWKQDQMFYDPLCGSGTLPLEASLKALNIAPGLFRESFGFENWLDFDLVLLEKLLQEAKDSQLDTLPAPIWGSDHDENVIEQAINNAQNCGVDNHVWFSQMELADVVAPADSGILLCNPPYGERLGRDSDLGAFYKLLGDVLKQRFKGWTAFVLSGNKELSQSIGLKSSKRIAVYNGALPCQLMKYELY | not soluble
MGSDKIHHHHHHMNYIYSFINGDFMRFFNREKEITEILSILEGNPDLVYFVYGPLNSGKTALISEIINNRIDKNKYVVFYINLRGIFISKYKDFIEVLFEEYEEDRKPVEIIKSLIKDVPSLCGIPTPKNTLEEILKKKTTKNVFKYITNVLMDIKKEGKQPIIIIDELQKIGDMKINGFLIYELFNYFVDLTKELHLCHVFCLSSDSLFIEQVYSEAMLKDRVDYILVDDFDKETALKFMDFLAEEILNKKLSDDEKELIYSYVGGKPILIIKVIKKLKIKGLKETLDEMLRDEMQKLKYFLEDIKEKDEESYNKIADALEIFKDSYEIEDIKIPKNIREFLVKKNILFLNPQKGTLKPQSYLVWNAIKRLL | not soluble
MGSDKIHHHHHHMNYKTLVMKILIINQHSMNHGDEAAGKALIRTLYDRGFQDIAVSYNMNDFDASCLFKYKNVKQILPTKKKARGLDKITKLYLKCPCFITRFLTLMYLQRRREVKMIKEANIVISAPGGVNMGLYRDYGYVWRLKEVLYQGKSLVIYSPSIGPFTTNDFFRKIAKEILTRSTFVSLRDTQSYRYAEDLSVHYIQSIDTAYLETPRMDLPLELLNLLPKEYVVLVPNELYSWHIDYFHYDKRSIDRFYSSLIDKFTSNGLTVVLLPQLFYQPNMEDEDYFNRLKAENEKVIVIPTYYDSDIQQAIIKRAQFVVGARYHTIVFSINNETPFVCLSYEHKMKNMLEILSLDSYSIDISYAFENHKIVIDKIWKMYLDRVSVLNVLYDGKKKAKLLARKTFDFLIKKLRSM | not soluble
MGSDKIHHHHHHMPEPDPLRIKTFTTPKDLGEWLKVNHGSERELWVKIYKKNTGIESVTWNDVVIEVLCWGWIDGIKKSIDDQAYLQRITPRKMRSNWSKRNTEHAERLISEERMMESGLVHIRAAKSDGRWENAYVVSEMEVPADFLAALENKSNAKAFFETLNKSSRYVIAYGLISAKKPETRLRRFEKFMNMLVHEEKPK | not soluble
MGSDKIHHHHHHMPFLEIRLTKESGRIYEEHSHPMLSIGVMLEGETQFFLQGEEFRLQTGMLAVIPPRMAHACNPLPSQTRSYFILHLSLDFCLEIQGRLFNEGGQNLLPLRAPRIFDPMMYQGLTSLIQSLLKGYDSLKGEAFWGWCERFFARYTLEVSSRGDALISEVAEYLEGDVEEASLAFLSKRFQINPYTLERRFKKAYGTTPKRYHTDARLHRLKKLLRQGIPLALCAQYGGFSDQSHFQRFFKRRVALTPREYQLNFVQ | not soluble
MGSDKIHHHHHHMPIYVYWGEDDFAMEKAIAVLRDHVLDPNWISFNYTAFTPDQADAAIQALNQVMTPTFGAGGRLVWLINTTLYQHCPENVLAELVRSLSVIPENSFLLLSSRNKPDERLKSTKLLKQFATEFREFPLIPPWKTELLVQSVNQVAQTVGVKLTANTAQLLAESVGNDTRLLYNEIEKLRLYAYGSNKPLDVDTVTKLVRNTTQNSLQLAAAIRIGDTAKALTTLADMINASEPGLRIVATLIGQFRTWLWVKIMIESGERNQQAIAIAADIGNPKRIYFLQQEIKLLSVQQLISCLPLLLELEVSLKQGASEMSTFQTKVIELCQVCQGS | not soluble
MGSDKIHHHHHHMPKKSFAQDCLYTAIMRLMREKDVDDITVKELVLKAGVARSTFYRYYTQPMDVLRDYLRPFNHGNAHLDDKDDKKVYLRRFYQYYTGHSELIYTLVQANKTEFLRETISCHILEVFSPMMTNKGVSPFLQKASVGLCVETLILWIVNDRKEKIEEMTDTVHNMVAVVERVS | not soluble
MGSDKIHHHHHHMPKPTKIVVLLKGYPRLSETFIAQELLGLEQAGFALELVAMRRPTDKKRHPVHDEIQAPVHYLPEYLHEEPGRVLKALWAVRRLPGFRPVLTQFFKDLRRDFSRNRFRRLGQAMVLVAEWPGKADWLHAHFIHTPASVAFYASLLGSRGFSVSAHAKDIWTSESWDLADKLAHATWVVTCTKVGFDRLSALADGRGSVHLSYHGLDLDRFPHFEGVRPARDGSDTADPLRLLSVGRAVKKKGYDVLLRALSALPADLNWHFTHIGGGDELVRLQALADQLGIASRITWKGAMDQRDVLTHYRDSDLFTLACRITADGDRDGLPNVLVEAASQGLMPVSTTVSGISELFVDGENGLLVEPDDAQALAVALEKAMRDPALRARLGSAAEGKVRRDFDYRNSIRDLTDLFSGRQ | not soluble
MGSDKIHHHHHHMPKRRLPSLNALRAFESAARNQSMTRAAEELCVTHSAISRHVAKLEDYLNAKLFERGHQQVVLTKRGAAYASRLQVLFDQIQDVTAEYFYARPDNASLRIGVLSTFAMRFLIPRLARFKKLYPEITLQVESAHEHVSPRDEEVDVAIWFGNGDWPGLVSEHLFHEELVPVGSPTLLAGHELGNPDDLESFLLLHAAARHDDWQRWLSATGATRVDGYKGLKLEYSGLAYQGAVDGLGLAMAQTLFVQEDLANRRLVAALPQRVKTGRSYYLVHNEMKSEQPVILRFSEWLKDEVRKTIEEIDRTQAEHIEVV | not soluble
MGSDKIHHHHHHMPKSVRAENISRILKRIMKSPVSRVELAEELGLTKTTVGEIAKIFLEKGIVVEEKDSPKGVGRPTKSLKISPNCAYVLGIEVTRDEIAACLIDASMNILAHEAHPLPSQSDREETLNVMYRIIDRAKDMMEKLGSKLSALTVAAPGPIDTERGIIIDPRNFPLSQIPLANLLKEKYGIEVWVENDADMGAVGEKWYTKRDDSFAWILTGKGIGAGIIIDGELYRGENGYAGEIGYTRVFNGNEYVFLEDVCNENVVLKHVLSMGFSSLAEARDSGDVRVKEYFDDIARYFSIGLLNLIHLFGISKIVIGGFFKELGENFLKKIKIEVETHLLYKHSVDMSFSKVQEPVIAFGAAVHALENYLERVTTS | soluble
MGSDKIHHHHHHMPLPIRDLYTFFVVARAGAMQAAAHELGVTPGAISQRIRSIEDRYGKRLFVRSRDGVSLTASGKALWKEVKSAFAQIETSHNRHIGKDGKTILRISAAPTFAHSFLVSNLASFNEDHPGIRFNIETEDRLADLRSEPIDLAIRHGLGDYAGLRSEWLCAPELIVVGSPALLESQHPVKEPEDCLRFTLLPDETGLDWALWFEAHRVNAVAPSYGTAFKDGFLTVKAASRGQGLALINDIYVREELADGRLVQLLPGSWPTKFAYYAVALPETFDRPAVKAFVKWLCAACAVEQMHQK | not soluble
MGSDKIHHHHHHMPLSSVSRPSTQIQAQSTGKIFIIGLPRTGTTSVCVALLEQGLKVAHQGFTQQSFYQADAIADAPVFSDFKQLDGLFPGAKFVYLSRDIAPWIISMQMLLGRMLIHLDEHTGRFHPIMKRSFNHSFKLNLVTNPFDEVHLKQCYLEHQQTVEEYFTGRNDLLKININQVGSLNRLLEFIELAPQDLASSIKSAPLNFPHLNIGRNVASWDEYKHPNKVSANLSGPNKRKFFDYTLS | not soluble
MGSDKIHHHHHHMPQGKANPFNINTSVKNGTVAKVGSISPTSFLNSVDPNATEVDVGGEPFNQKEFLELALNDDFLKGLLLDEEGNIKPEVAGEATIQGLEQWHQNDAGLEVDDTDTLGLMFNYYLNDNVSLQFIGGIPPKVDIKGQGEILAPLSGVALSPNELVKILFPNGITLGQAVPITNLGNKPKAASVRAWTPAIEAQYQFGKSGVNKFRPYLGVGLMYAHFNDIKLNDEIRSDLISAGHMIQNVLDGKAGAALDRKESSGNMVVKVDADDAIAPIFTAGFTYDFNDSWYTVASVSYAKLNNRTQIDVINQNTGARLIHGSTKVDIDPIITYLGVGYRF | not soluble
MGSDKIHHHHHHMPTKRGQIRHDPSSKKATTMDLNRRPVASLWIGESLQYLNQLCLKSHLRHGHPVTLYCTDKVTNAPEGVVVKPATDIMDIPMNIVEQTSASFLSNVFRYKMIQQTGAIWIDCDAFCHAPFPDEWEHIYAGHGMRGALNCGVVGIPQQGELMDQLLDYYDNLPDYPPWWNPRQRKRMDRQDSNLPLAVRIYKTERTAFGPQAFTHFARETGDIDRAMTSDVLYPVPFQLNDIFYDPHGRVEGWFSENTRSVHLYTNGTKPWWRKNPPLENSYAWRMCQEVGITPEDALE | not soluble
MGSDKIHHHHHHMPYDEILPIETLVRPKVSDFREHYLEKERPVKIARALDAWPAMQKWSLDYFENRFGDETIGVESFQPDERGPGNNSPQGYVKHLRFQELKLKELIRILRTKPDHMYYMASHPFRKSFPNLRADLAPHPYVQGHIEHIPGAHMDSYLWIGPAGTHTPIHTDPMPNFLTQIVGRKMVYLFPPDQASKNLYIGQFERETFSPVDLEKPDLERYPNYRHCTPYRAIIEPGETLHIPRNWGHCVISMDISISISTFFITYPQLFRLVPEFFTQYVKRAFEGWRWKGMENERAGLNPPPR | not soluble
MGSDKIHHHHHHMQATDIATQQALAAALGVNRSAVTQAKNRDAIPQKWILQLARAYHLAPDWLEFGKGRQHQPPTSLHDPETVLVPRVKAVLSAGGGSLDVSGGVVENLPFRYDWLARRGHPAHMVLMNVTGDSMEPGIRHGDTLLIDQSHVTAQTGGVYAFGYEDSILVKRFGRDADAILLLSDNTAYAPIRIRGDEADLLHVIGKIVWLCRAVQ | not soluble
MGSDKIHHHHHHMQCMIDAMRSIVSLISHATVALAGSLAVAGCSLSPQPDHDTAATTPERLEARIHKVHRFDPQAFTQGLELDGDRLLVSTGFYGESGMFSMEVGNAPQQRTPLDPELFGEGITKTGDHIWQLTWRDGIAFKRDATTFQQLGTVSYEGEGWGLCHFDDRVIMSNGSDELIIRDPESFDERSRIRVTNQGNGVSNLNELECVPNDPATGKDTIYANVFLSTDIMRIDATTGAVTGIIDASSIPNNAVADTNNVLNGIAWIPSSDRFYITGKRWPDLYEVTFVSKMSNHGQS | not soluble
MGSDKIHHHHHHMQDKVIPSLSAAIAKEVERRTQGVDWCETEIAGLDFYRQSAPTSCSVCVVEPSIALVVQGAKAMTLGEQTFRYDPSRFLITSLDLPAKMQVLEASEEAPYLGVVIKLDLAVMSDLMLQTPLTMQKETASDQGMILGATTPKLLGAISRLVNLLDEPESIAVLAPLIKREIYWRVLMSEQGARLRQIVSAGSHGLRIARTIEWLKVHYDQHLSVDSLADMARMSKSTFHHHFRRLTSMSPLQYQKRLRLLEARRLMLGEDIDASAAAYRVGYESPSQFSREYSRLFGASPKKDVATQWQ | not soluble
MGSDKIHHHHHHMQDNLIEIRDLRVAFNGHEVVHGISLDIRRGECLALVGESGSGKSVTAHSILRLLPPKNVSTQGSIRYDGLDLVTASDKQLRSLRGNRVAMIFQEPMSSLNPLHTVEKQIGEILVTHKGLKGKAALSRTLELLELVGIREPLLRLKAYPHQLSGGQRQRVMIAMALANEPDLLIADEPTTALDVTVQVKILELLKSLQQRLNMSLLLISHDLNLVRRIAQRVCVMREGEIVEQADCQALFDNPQHPYSRLLINAEPDGEPVPSTHSNTLLSVQDLKVWFPLGKAWFQREQQYVKAVDGVSFELLKGKTLGIVGESGSGKSTLGQAILRLVDSEGSIRFGTKELSLHSQHLMRPLRRQLQVVFQDPFGSLSPRMTVEQIIAEGLVTHKIGTPKEREQTVIRVLQEVGLDPATRHRYPHEFSGGQRQRISIARALVLEPDLILLDEPTSALDRTVQKQIVALLRDLQIRHGLTYLFISHDLAVVHALAHDLIVIKDGKVVEQGPSREIFAAPQQAYTQELLRSSGLVFA | not soluble
